Experimental data taken from patent US20220356246A1 (NANJING IMMUNOPHAGE BIOTECH, published 2022).

Columns and labels:
[1] = molecular target: T1, Human ROR1-ECD (human, UniProt Q01973 30-406); assay: BLI (Fortebio Octet RED96), mAb on AHC biosensor, human ROR1-ECD as analyte
T1 construct: extracellular domain; Analyte in the Fortebio Octet assay; also called ROR1-derived extracellular domain fragment
Procedure: Human ROR1-ECD was diluted in KB buffer (0.1% BSA, 0.05% Tween 20, 1×PBS, pH 7.4) to various concentrations (from about 500 nM to about 62.5 nM), and the mAb was also diluted in KB buffer to 10 μg/mL. The mAb was loading to anti-hIgG Fc Capture (AHC) Biosensors (PALL, Fortebio), and the diluted Human ROR1-ECD was associated with Mab, then dissociated in KB buffer. Association (k-on) and dissociation (k-off) rate constants were calculated based on a 1:1 Langmuir binding model using Fortebio Date Analysis 7.1 software (PALL, Fortebio).

[2] = molecular target: T2, human ROR1 expressed on CHO-K1 cells (human, UniProt Q01973 30-937); assay: flow cytometry on CHO-K1-ROR1 cells, PE anti-human IgG-Fc
T2 construct: whole, on cells; also called CHO-K1-ROR1
T2 sequence (Q01973 30-937): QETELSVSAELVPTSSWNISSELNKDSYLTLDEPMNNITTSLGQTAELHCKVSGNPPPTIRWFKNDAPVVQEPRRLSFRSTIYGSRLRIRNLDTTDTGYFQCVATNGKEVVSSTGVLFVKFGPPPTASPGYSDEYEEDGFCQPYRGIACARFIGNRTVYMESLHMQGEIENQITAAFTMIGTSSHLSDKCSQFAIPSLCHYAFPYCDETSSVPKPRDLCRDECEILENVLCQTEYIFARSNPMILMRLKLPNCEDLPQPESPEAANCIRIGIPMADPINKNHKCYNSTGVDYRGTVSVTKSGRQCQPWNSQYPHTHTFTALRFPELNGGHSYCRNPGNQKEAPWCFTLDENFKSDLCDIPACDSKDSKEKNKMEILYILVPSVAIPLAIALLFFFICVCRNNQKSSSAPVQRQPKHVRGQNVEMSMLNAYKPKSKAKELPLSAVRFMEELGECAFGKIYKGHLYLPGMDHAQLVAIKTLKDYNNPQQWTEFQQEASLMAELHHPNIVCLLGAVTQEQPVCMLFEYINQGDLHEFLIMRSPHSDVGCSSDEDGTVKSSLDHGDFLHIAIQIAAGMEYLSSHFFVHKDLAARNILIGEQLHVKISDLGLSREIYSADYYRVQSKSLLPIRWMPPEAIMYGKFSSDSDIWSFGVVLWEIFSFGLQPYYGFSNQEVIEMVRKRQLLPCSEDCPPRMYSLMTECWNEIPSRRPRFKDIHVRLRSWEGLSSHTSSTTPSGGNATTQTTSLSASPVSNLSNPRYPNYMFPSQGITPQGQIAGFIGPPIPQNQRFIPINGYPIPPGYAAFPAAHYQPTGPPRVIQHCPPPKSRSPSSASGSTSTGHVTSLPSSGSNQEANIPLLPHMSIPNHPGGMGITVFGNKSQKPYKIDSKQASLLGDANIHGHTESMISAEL
Procedure: CHO-K1 cell line was transduced with lentivector carrying human ROR1. CHO-K1-ROR1 cells were resuspended in FACS buffer and Fc receptors were blocked prior to incubation with purified ROR1 mAbs. 5×10⁵ cells in 100 μL FACS buffer were aliquoted to separate tubes and the purified mAb was added. Antibody concentration is from about 30 μg/mL to about 0.000508 μg/mL. Cells were incubated at 4 degrees for 1 hour, then washed twice with excess FACS buffer. Cells were resuspended in 100 μL FACS buffer and 0.5 μg of anti-human IgG-Fc (PE) secondary antibody (ab98596) was added to samples, incubated for 30 minutes and washed twice with excess FACS buffer.

T1 sequence (Q01973 30-406): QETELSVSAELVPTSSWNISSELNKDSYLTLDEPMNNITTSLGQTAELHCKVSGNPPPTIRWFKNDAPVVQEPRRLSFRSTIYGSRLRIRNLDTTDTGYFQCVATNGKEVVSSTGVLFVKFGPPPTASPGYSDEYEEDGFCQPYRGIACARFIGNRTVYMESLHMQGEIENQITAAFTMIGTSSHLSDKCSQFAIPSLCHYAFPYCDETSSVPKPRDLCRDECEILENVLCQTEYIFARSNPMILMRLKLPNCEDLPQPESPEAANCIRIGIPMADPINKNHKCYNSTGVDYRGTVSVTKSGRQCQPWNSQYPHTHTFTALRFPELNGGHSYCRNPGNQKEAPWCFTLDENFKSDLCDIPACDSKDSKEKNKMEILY

binding result [1] | binding result [2] | Binder
binds | binds | anti-ROR1 antibody clone C3 (antibody, V domains shown, also called anti-ROR1 (clone C3)) VH: QVQLQESGPGLVKPSETLSLTCTVSGGSISSYYWSWIRQLPGKGLEWIGYMHYSGSTSYNPSLKGRLTISVDTSTNQFSLKLGSVTAADTAVYYCARYYYHDSSGYYSYFDYWGQGTLVTVSS VL: EIVLTQSPGTLSLSPGERATLSCRASQSVSSYLAWYQQKAGQAPRLLIYDASNRASGIPARFSGSGSGTDFTLTISSLEPEDFAVYYCQQRSNWPPTFGGGTKVEIK
binds | binds | anti-ROR1 antibody clone G3 (antibody, V domains shown) VH: QVQLQQWGAGLLKPSETLSLTCAVYGGSFSGYYWSWIRQPPGKGLEWIGEINHSGSTSYNPSLKSRVTISVDTSKNQFSLKLSSVTAADTAVYYCARGHSSGWYRRYFDLWGRGTLVTVSS VL: EIVLTQSPATLSLSPGERATLSCRASQSVSSYLAWYQQKPGQAPRLLIYDASNRATGIPAKFSGSGSGTDFTLTISSLEPEDFAVYYCQQRSNWPPTFGGGTKVEIK
binds | binds | anti-ROR1 antibody clone G6 (antibody, V domains shown) VH: EVQLVESGGGVVQPGGSLRLSCAASGFTFDDYAMHWVRQAPGKGLEWVSLISGDGGSTYYADSVKGRFTISRDNAKNSLYLQMNSLRAEDTAVYYCARDNWNDVYYYYGMDVWGQGTTVTVSS VL: DIQLTQSPSSLSASIGDTVTISCQASRDISDYLNWYQHKPGKAPKLLIYDASNLATGVPSRFSGSGSGTDFTLTIKSLQPEDVATYFCQQDDLLPLTFGGGTKVDIK
